Experimental data: the DeepSol protein solubility set

experiment: soluble on expression in E. coli; label from the status in PepcDB or PDB records

Sequence	soluble on expression in E. coli
GPGSMNPSKVVQGTPNSVEWDPRNPPDTPFFTETTAVERSRIPTEYIRRMEEATRLYAMHREGRHALHTACQIASWTVATQCCWLCVGVWLTVRGYRHANPAHSFVSGMTSNKVFCRVFTPIPVLGLTMMGVTAAQLPRDVKVLITAREGRMEEENCMKSAFDQCMAALAEGRLAMGKEGILTA	not soluble
MDLFPVLKELAQKTPSKILLIVLDGVGGLPLEPGGPTELEAAKTPNLDRLAEESALGLLTPVYPGLAPGSGPGHLALFGYDPFRYVVGRGALSALGLGADFREGDVALRGNFATLDPEGKVVDRRAGRPPTEENQRVVAKLKEAIPRIEDVEVHFYTESEHRFLVVLRGEGLGDAVTDTDPQKTGLPPLKAKALDEASERTARLVNLLSERIREVLKDEPRMNGALFRGASKKPSFPRMQEVYKLTPAAIASYPMYKGLASLVGMEVLPVEGEGDALEGKLKALKENWGRYDFFYFHVKKTDAMGEDGNFHGKVEKVELFDALLPEILALGPDVLAITGDHSTPALLKAHSWHPVPLLLKAPYLRADEARRFTEREAQRGSLGHLRGMELMPLLLAHAGKLLKYGALEHHHHHH	not soluble
MSLTMPVNTIMGLFAKSPIKPLQRHVVCVNECCSHLINFFEVCNKGDWEKAGEIRAQISHLEKEADVLKREIRLKLPRGLFMPVDRSDMLELLTQQDKLANLAKDIAGRVYGRQLVIPEPLQENFIAYVRRCLDAANQAQNVINELDELLETGFKGREVTLVAEMIHQLDVIEDDTDSMQIRLRQQLMAIESKMNPIDVMFLYKILEWVGGIADQAQRVGARLELMLSRSEGHHHHHH	soluble
IQTTAPPVKESSFVEKMKKTGRNIIVFYGSQTGTAEEFANRLSKDAHRYGMRGMSADPEEYDLADLSSLPEIDKSLVVFCMATYGEGDPTDNAQDFYDWLQETDVDLTGVKFAVFGLGNKTYEHFNAMGKYVDQRLEQLGAQRIFELGLGDDDGNLEEDFITWREQFWPAVCEFFGVEATGEESSIRQYELVVHEDMDVAKVYTGEMGRLKSYENQKPPFDAKNPFLAAVTANRKLNQGTERHLMHLELDISDSKIRYESGDHVAVYPANDSALVNQIGEILGADLDVIMSLNNLDEESNKKHPFPCPTTYRTALTYYLDITNPPRTNVLYELAQYASEPSEQEHLHKMASSSGEGKELYLSWVVEARRHILAILQDYPSLRPPIDHLCELLPRLQARYYSIASSSKVHPNSVHICAVAVEYEAKSGRVNKGVATSWLRAKEPAGENGGRALVPMFVRKSQFRLPFKSTTPVIMVGPGTGIAPFMGFIQERAWLREQGKEVGETLLYYGCRRSDEDYLYREELARFHKDGALTQLNVAFSREQAHKVYVQHLLKRDREHLWKLIHEGGAHIYVCGDARNMAKDVQNTFYDIVAEFGPMEHTQAVDYVKKLMTKGRYSLDVGS	soluble
MGSDKIHHHHHHMTEAHNACCHPSGTAAGHHGAGKASTDMMDAVDRRLLDIIQTGFPIEPRPYAVLGETLGITECEALARVRALRERKVIRRLGANFDSWKLGFRSTLCAAKVPEDRIDAFVAEVNRHVNVTHNYLRNHEYNIWFTCICPSWEQVCSLLDGITERTGIPILNLPATKLYKIRVDFRMD	not soluble
MENKYTHGVLFYHEHSGLKNINQGIGEVTTALSSICKHLSIQLSENEGDIIKYCQEIKTKNYAKDVDILFILGGDGTVNELINGVMSHDLQLPIGILPGGTFNDFTKTLNIAPNHKQASEQMISAQVGTYDVIKINNQYALNFVGLGLIVQNAENVQDGSKDIFGKLSYIGSTVKTLLNPTQFNYQLSIDDKTYSGETTMILTANGPFIGGSRIPLTDLSPQDGELNTFIFNEQSFSILNDIFKKRDSMNWNEITQGIEHIPGKKISLTTDPAMKVDIDGEISLETPIDIEVIPNAIQLLTVNDL	soluble
MNEINESYDTDSVREFTVSDADAGPYALAEGPDGALWFTLVHRGAVARRDPDDGRVTVHPVGDGPTVIAPGPDGALWFTEYRAHRIGRITPEGHYASFAPLTPEGGPFGITAGPDGAMWFTLSSADRVGRVTMDGEVTEHPAPGAFPSALTAGPDGALWCTLNQGNAIGRLTPDGHGTAYPLPTPGAAPVGIAAGPDGALWFTEIGAGRIGRITVTGDLTEYPLSDPAARPHAVTAGPNGALWFTEWGSGRVGRITVDGRVTSYPLSRTDCEPHGIAVHDGALWCALETGSLARIQVPA	soluble
GPGSMDTIEFLHTVGKLKETMRTGWVETGVHQPESVSDHMYRAALLCMMCPDSSLNRDRLVRMALCHDVGESIIGDISPKMGVPAAEKHKREKEAILHLRGLLPHDSPLEKELQELWEEYETQGTPEARFLRDIDLLEMVTQAHAYEKTHPELNFDSFYVSGEKIKHPWVRSIYDNLVSTRPSRKS	soluble
MGHHHHHHSHMRIVFDIGGSVLVPEKPDVDFITKLGYELTKISEDHEIAIVVGGGKVAREYIEVASKFNTNETFKDYLGIQITRANAMLLIAALKERAYPQVVSDFWEAWKAIQLKKIPVMGGTHPGHTTDAVSALLAEFLSADLLVVITNVDGVYTEDPKKNPNAKKIPKMKAKDLVDIVSREAGKAGVSTVIDPLAAKIIMRSGIKTYVIG	not soluble
MGHHHHHHSHMSCTIEKILTDAKTLLERLREHDAAAESLVDQSAALHRRVAAMREAGTALPDQYQEDASDMKDMSKYKPHILLSQENTQIRDLQQENRELWISLEEHQDALELIMSKYRKQMLQLMVAKKAVDAEPVLKAHQSHSAEIESQIDRICEMGEVMRKAVQVDDDQFCKIQEILAQLELENKELRELLSISSESHQARKENSMDTASQAIK	not soluble
GMHVYESDVSWIDDRRTEVSVGDHRIEVDSPPEFGGPEGQLYPETLFPSVLASCLLTTFLEFKDRMGINLKSWNSHVTAELGPSPEKGFKFHRIKIHVKIGVNDEDKEKIPRAMQLAEKYCFISRAIRNNVEEIVDYEFV	soluble
MSLTQEFIDKVSSYLTPDVDIAPISQGAEAIVFTTTTHPYLPRAKDSHQKYIIKYRPPKRYRHPQIDQALTKHRTLNESRLLAKLYLIPGLCVPQLIACDPYNGFIWLEFLGEDLPGGHGFSNLKNFLWMHDQDPYSDLVATTLRKVGRQIGLLHWNDYCHGDLTSSNIVLVRDGARWTPHLIDFGLGSVSNLVEDKGVDLYVLERAILSTHSKHAEKYNAWIMEGFEEVYREQGAKGAKKLKEVTKRFEEVRLRGRKRSMLGEGHHHHHH	not soluble
ELSYRLLDQIYINPAVILKREEQYIKDFQSYVTEQKLSMNDRKKIKEFTKTDWTIVMALYQENDIIFSSDSRFIVPLPADEYGETIKDTSEASGVFNVTFTDGAVQAALVYTGYENYQS	soluble
MKKPFSKLFGLKNKDDIIGHIEEDRNSNVESIQIERIVPNRYQPRQVFEPNKIKELAESIHEHGLLQPIVVRPIEEDMFEIIAGERRFRAIQSLNLPQADVIIRDMDDEETAVVALIENIQRENLSVVEEAEAYKKLLEIGDTTQSELAKSLGKSQSFIANKLRLLKLAPKVLLRLREGKITERHARAVLSLSDSEQEALIEQVIAQKLNVKQTEDRVRQKTGPEKVKAQNLRFAQDVTQARDEVGKSIQAIQQTGLHVEHKDKDHEDYYEIKIRIYKR	not soluble
MISKRNTPQRRHAILALLSEQGEVSVDALAKRFSTSEVTIRKDLAAMESHGLLLRRYGGAVPMPQELIGEAAQPVSPYKQAIGRAAAARIREHARIIIDSGSTTAAMIPELGHKPGLVVMTNSLNVVNALRELEHEPVLLMTGGTWDPHSESFQGQVAEQVLRSYDFDQLFIGADGIDLERGTTTFNELLGLSRVMAEVAREVIVMAEADKVGRRIPNQELPWSSIHTLITDERLESSAREQITARGVTLICTPVEALEHHHHHH	not soluble
MGSDKIHHHHHHMPKSVQDDAIEAGTLLSVQGLTVGLPPGMDRRYAVEDMSFDLKAGEILCIIGESGSGKSVTANATMGLLAQSLHIVSGSIMLEGQELVGADAATLRALRGRIVSMIFQDPLSALNPLMTVGDQIAEVMEAHGIGTQQERRARVLDLITEVGLPDPELMQHQYPFRLSGGQRQRVMIAMALALEPKVLIADEPTTALDVTTQAQILELIASIQRRKQMSVMFITHDFGVVAEIADRVIVMEKGHVVEQGSASVVLKSPDHPYTQRLIAAVPRMRASDRENEADTPVVLEARNLCKTYGTGSGFLSKGRVIKAVDDVSFTIAKGRTLGIVGESGSGKSSLGRLLVKLMNSDSGEILFGGRDIAPLSEEAFRSMRPYIQMIFQDPFASLNPRQTIGRILTVGPVAQATPIHEARTRAMRLLERVGLDAGAYDRYPHEFSGGQRQRIGIARALMFNPMLIVADEAVSALDVSIQAQILQLLTEVQQEMKLAMAFITHDLRVASQICDEIAVMYKGRIVEYGPPSQIFRNPTHDYTRQLVSAIPGTEWEPAVMV	not soluble
MPGNSPHYGRWPQHDFTSLKKLRPQSVTSRIQPGSDVIVCAEMDEQWGYVGAKSRQRWLFYAYDSLRKTVVAHVFGERTMATLGRLMSLLSPFDVVIWMTDGWPLYESRLKGKLHVISKRYTQRIERHNLNLRQHLARLGRKSLSFSKSVELHDKVIGHYLNIKHYQLEHHHHHH	soluble
MMKPSVSAAILAAGTSTRMNEMKQLAKIQGTYMLKYVIDQVSNHPFQHIFVIVGHQADIVMKMIQVEDKRVQWLVNDQYKQGQSTSFKLAMEQARQYGDAVMMFLADQPLIEKETVNIVLNEGITRVQEEPFIVRPMYEKKEGHPVYWGNIHALDCSAVNGDKGGKTLMEELERMLIPVHDQGVLVDVDTCEDYKKVNDLMKRKSPSTHLEHHHHHH	not soluble
MAFIHTSLTRLMRFAVDQTKDIIEPLMVTKVLTEFSESENDGLSHYAHYAKFHNYLVPNMAKLAEYSIEERVRVIFGFAAVVSDDFLKQIQREGLVHLDKKKRICKFTSHNGKWKLEGDHSHSARMKRRWSMRVRVVVGLPSLMNFLVEKTKDIIEPMLASAAFREFSESEDGGLPEHAYYNHFHKNVAPNMAKIEEYSIEERVRVMFALAGRVSADFRAQTKGLVELDDGKRISKFTSTDGKLKLEGDHSDSARRKRSAAFYRKTDHHCRSANDSKPRRKNGRQSDSEFSDKSGSDEDDVESAISYGNSPKRARCEKSADPEMHVSSGSDDDEVEDVGGMDEEPVLLPIDSDESHIGHLQNGEEMMVEDDNQPIPEDPQYSANSSHQGRRMSGRIQEKLSASIAQETTDAAVAIPHVPILNPPFESDDEEVKYIGAVKGQPKPGPIESVFDQINNRDHFQGNQEYRNQSISERKVDVPLFVEHQQISLSAENRATSAEWKSIFLHDFLKQLTQFICFFECSELAEIKRNIKEVMADEGKISSFQKLEIIDIRTVLGAFFFGVSRKIKSTGSNNSTMKAKDFLVTFKYFLLGLDFSELLELSTVFKRKLTSSHVQRHPPSSPKPTLHNF	not soluble
MRKVRVGIWGFGAMGIGMANMILKKEGIEIVSVCSRSTSGKSMYDVLGIERGERPEVIINKNYEEVFREKSVDVVLLATDSFTKKAFDKIIFLLNRKINVISTAEQMAYPQADDADLAKKMDEVAKENGVSILGTGINPGFVLDLLVLALSGTCEEVTSIKAKRVNDLSPFGKSVMVEQGVGVTREEFIKGVEDKTIAGHVGFVESINMIADGLGWKLDKIEQTKEPIMTTVDRKSKYGEALAGNVAGCRQCGYGYVNGEVLIEMEHPQQIIPEAEGIKTGDYVSIKGIPNIDLQINPEIPGGVGTYAMIVNSIPLIINARPGLKTMLDIPVPRAIMGDIRNQIEVELEEESKAN	not soluble
GAMGDIDERNIFFELFDRYKLDKFSTWSLQSKKIENDPDFYKIRDDTVRESLFEEWCGE	soluble
MGSDKIHHHHHHMKPIQLPLSVRLRDDATFANYYPGANAAALGYVERLCEAEAGWAESLIYLWGHDGVGRSHLLQAACLRFEQFEERTIYLPMADLVQYGPEIFDDLEQCELVCIDDLDVLVGKREWEEGLFHLFNRLRDTGRRLLLAASKSPRELQVKLPDLKSRLTMALIFQLHGLSDEDKLRALQLRASRRGLHLTDEVGRFILNRGSRSMNSLFDLLEQLDRASLQAQRKLTIPFLKETLGW	not soluble
